Data on 1 substance can be found in patent US6534281.

Assay [1] concerns the target human C-peptide (human). The assay is described as follows: sandwich immunoassay, one-step; CPT-3F-11 on particles, labeled antibody 9101.
For assay [2], the target named is human C-peptide (human). The assay is described as follows: sandwich immunoassay, two-step; CPT-3F-11 on particles, labeled antibody PEP-001.
Assay [3] addresses human C-peptide (human). The assay can be described thus: ELISA on immobilized C-peptide; labeled antibody 1.0 ug/ml, free C-peptide 0.1 ug/ml. On the technique in general: An ELISA detects its analyte on a solid surface through an enzyme-linked reagent.
Assay [4] has as its target human C-peptide (human). The assay can be described thus: ELISA on immobilized C-peptide; labeled antibody 1.0 ug/ml, free C-peptide 1.0 ug/ml.
Assay [5] has as its target human proinsulin (human) (UniProt P01308). The assay can be described thus: sandwich immunoassay, one-step; proinsulin 50 ng/ml; CPT-3F-11 on particles, labeled antibody 9101.
For assay [6] the target is unchanged. The assay can be described thus: sandwich immunoassay, two-step; proinsulin 50 ng/ml; CPT-3F-11 on particles, labeled antibody 9101.
Assay [7] has the same target. The assay is described as follows: sandwich immunoassay, two-step; proinsulin 400 ng/ml; CPT-3F-11 on particles, labeled antibody 9101.
The target is the same in assay [8]. The assay is described as follows: sandwich immunoassay, two-step, against C-peptide calibration; proinsulin 50 ng/ml; CPT-3-F11 on particles, labeled antibody 9101.
For assay [9] the target is unchanged. The assay is described as follows: sandwich immunoassay, one-step, against C-peptide calibration; proinsulin 200 ng/ml; CPT-3-F11 on particles, labeled antibody 9101.
The target is the same in assay [10]. The assay can be described thus: sandwich immunoassay, one-step, against C-peptide calibration; proinsulin 400 ng/ml; CPT-3-F11 on particles, labeled antibody 9101.
Assay [11] has the same target. The assay is described as follows: sandwich immunoassay, one-step, against C-peptide calibration; proinsulin 50 ng/ml; CPT-3-F11 on particles, labeled antibody PEP-001.
Assay [12] concerns the target modified C-peptide (human C-peptide having Arg-Arg bound to its N-terminal and Lys-Arg bound to its C-terminal) (human). The assay is described as follows: sandwich immunoassay, one-step, against C-peptide calibration; modified C-peptide 5 ng/ml; CPT-3F-11 on particles, labeled antibody PEP-001.

human C-peptide (human), sequence (peptide, as listed by the source): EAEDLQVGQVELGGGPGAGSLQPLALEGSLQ
UniProt P01308, sequence (P01308 25-110): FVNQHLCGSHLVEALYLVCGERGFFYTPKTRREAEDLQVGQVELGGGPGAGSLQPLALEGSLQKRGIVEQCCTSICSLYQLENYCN
modified C-peptide (human C-peptide having Arg-Arg bound to its N-terminal and Lys-Arg bound to its C-terminal) (human), sequence (peptide, as listed by the source): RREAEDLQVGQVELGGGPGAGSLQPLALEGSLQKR

Regarding “anti-human C-peptide monoclonal antibody CPT-3-F11 (Dako)”, the 2S/N value with human C-peptide (human) [1] turned out to be 0.008 ng/mL; with human C-peptide (human) [2], 0.006 ng/mL. Besides, the Absorbance (absorbance at 405 nm) was 0.311 with human C-peptide (human) [3] and 0.062 in the assay with human C-peptide (human) [4]. Further, the results for the Binding Ratio with human C-peptide (human) [3] and in the assay with human C-peptide (human) [4] were 16% and 3.2%, respectively. Besides, the counts of chemiluminescence with human proinsulin (human) [5] was determined as 4140 counts; with human proinsulin (human) [6], 4400 counts; with human proinsulin (human) [7], 99400 counts. Besides, the Cross-reactivity (%) to Human Proinsulin worked out at 0.4% with human proinsulin (human) [8], 2.6% in the assay with human proinsulin (human) [9], 3% with human proinsulin (human) [10] and 56.8% with human proinsulin (human) [11]. The Cross-reactivity (%) to Modified C-peptide in assay [12] was 62.7%.
